Measurements: article PMC5945547, “SAAV2152 is a single-stranded DNA binding protein: the third SSB in Staphylococcus aureus” (Oncotarget, 2018)

Assays:
SaPriA = target: T1, SaPriA (Staphylococcus aureus, UniProt Q2G266); assay: ATPase assay, thin-layer chromatography with autoradiography; type: biochemical; conditions: 0.4 mM [γ-32P]ATP, 0.12 μM SaPriA, 0.1 μM PS4/PS3-dT30 DNA, 40 mM Tris pH 8.0, 10 mM NaCl, 2 mM DTT, 2.5 mM MgCl2, 1 h; labelled compound
T1 construct: gene priA; recombinant
T1 sequence (Q2G266 1-802): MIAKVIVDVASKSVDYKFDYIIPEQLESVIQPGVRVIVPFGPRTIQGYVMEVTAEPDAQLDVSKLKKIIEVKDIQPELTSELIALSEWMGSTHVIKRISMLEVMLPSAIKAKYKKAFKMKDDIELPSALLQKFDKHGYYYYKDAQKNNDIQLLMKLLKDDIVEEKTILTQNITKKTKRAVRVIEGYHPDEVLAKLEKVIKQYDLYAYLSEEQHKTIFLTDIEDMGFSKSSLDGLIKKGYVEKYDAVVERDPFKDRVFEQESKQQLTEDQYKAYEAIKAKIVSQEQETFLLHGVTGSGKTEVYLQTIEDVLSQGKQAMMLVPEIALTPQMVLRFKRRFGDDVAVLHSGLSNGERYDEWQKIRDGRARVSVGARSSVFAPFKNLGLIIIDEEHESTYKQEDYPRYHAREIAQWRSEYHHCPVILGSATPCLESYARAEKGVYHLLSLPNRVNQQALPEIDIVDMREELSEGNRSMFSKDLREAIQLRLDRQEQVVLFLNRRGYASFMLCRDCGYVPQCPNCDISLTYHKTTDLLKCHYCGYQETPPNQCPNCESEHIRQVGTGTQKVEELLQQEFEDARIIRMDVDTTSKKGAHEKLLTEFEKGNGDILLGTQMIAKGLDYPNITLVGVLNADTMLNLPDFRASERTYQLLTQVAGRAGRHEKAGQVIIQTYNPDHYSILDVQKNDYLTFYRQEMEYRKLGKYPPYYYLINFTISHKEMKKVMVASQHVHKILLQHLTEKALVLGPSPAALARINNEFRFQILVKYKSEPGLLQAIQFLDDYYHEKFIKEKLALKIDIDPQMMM

[1] = target: SaSsbC with a His tag (product of S. aureus ssb gene SAAV2152) (S. aureus subsp. aureus ED98); assay: cross-linking; glutaraldehyde (0.1% to 5%), SaSsbC 2.5 uM, 4 C, 30 min, Coomassie-stained SDS-PAGE; self-association, tetramer
[2] = target: SaSsbC with a His tag (product of S. aureus ssb gene SAAV2152) (S. aureus subsp. aureus ED98); assay: SEC; gel filtration, Superdex 200 prep grade, SaSsbC 2 mg/mL in Buffer B (20 mM HEPES, 100 mM NaCl, pH 7.0), column calibrated with proteins of known mass; self-association, tetramer

Compound	ATPase assay, thin-layer chromatography with autoradiography (SaPriA)	stoichiometry N [1]	stoichiometry N [2]
Nc1ncnc2c1ncn2[C@@H]1O[C@H](COP(=O)(O)OP(=O)(O)OP(=O)(O)O)[C@@H](O)[C@H]1O [ATP]	SaPriA could hydrolyze ATP on its own	–	–
SaSsbC with a His tag (product of S. aureus ssb gene SAAV2152) (natural protein)	–	4	4
